In the RNAGym collection of RNA variant scans (doi:10.1073/pnas.2313332121):

B1: TPR t1 (parent)
chain: GACCAAUCUGCCCUCAGAGCUCGAGAACAUCUUCGGAUGCAGAGGAGGCAGGCUUCGGUGGCGCGAUAGCGCCAACGUCCUCAACCUCCAAUGCAUCCCACCACAUGAUGAUGCCUGAAGAGCCUUGGUUUUUUG

Variants of: B1
Experiment: polymerase ribozyme fitness, log enrichment relative to wild type (log ratio); higher = more active; in vitro selection for triplet polymerase activity
Outline: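 A single round of triplicate in vitro selection, including frozen incubation at −7 °C, was applied to PCR-built, transcribed mutant libraries of each subunit of a heterodimeric triplet polymerase ribozyme. Illumina sequencing of input and output libraries retained genotypes with ≥10 input reads and ≥1 read per output. Fitness is the base-2 logarithm of genotype enrichment divided by wild-type enrichment, from inverse-variance-weighted replicate averages.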

Variant	polymerase ribozyme fitness (log ratio)
GACCAAUCUGCCCUCAGAGCUCGAGAACAUCUUCGGAUGCAGAGUAGGCAGGAUUCGGUGGCGCGAUAGCGCCAACGUCCUCAACCUCCGAUGCAUUCCACCACAUGAUGAUGCCUGAAGAGCCUUGGUUUUUUG [G45U C53A A90G C97U]	-1.75
GACCAAUCUGCCCUCAGAGCUCGAGAACAUCUUCGGAUGCAGAGGAGACAAGCUUCGGUGGCGCGAUAGCACCAACGUACUCAUCCUCCAAUGCAUCCCACCACAUGAUGAUGCCUGAAGAGCCUUGAGUUUUUG [G48A G51A G71A C79A A84U G128A U129G]	-6.49
GACCAAUCUGCCCUGAGAGCUCGAGACCAUCUUCGGAUGCGGAGGAGGCAGGCUUCGGUGGCGCGAUAGCGCCAACGUCCUCAACCUCCAAUGCAUCCCACCACAUGAUGAUGUCCGAAGAGCCUUGGUUUUUUG [C15G A27C A41G C114U U116C]	-7.35
GACCAAUCUGCCCUCAGAGCUCGAGAACAUCUUCGGAUGAAGAGGAGGCAGGCUUCGGUGGCGCGAUAGCGCCAACGUCCUCAACCUCCAACGCAUCCCACCACAUGAUGAUGCCUGGAGAGCCUUGGUUUUUUG [C40A U92C A118G]	-2.05
GACCAAUCUGCCCUCAGAGCUCGAGAACAUCUUCGGAUGCAGAGGAGGCAGGCUUCGGUGGCGCGAUAGCACCAACGUCCUCAACCUCCAAUGCAUCCCACCACAUGAUGAAGCCUGAAGAGCCUUGGUUUUUUG [G71A U112A]	0.323
GAUCAAUCUGCCCUCAGAGCUCGAGAACAUCUUCGGAUGCAGAGGAGGCAGGCUUCGAUGGCGCGAUAGCGCCAACGUCCUCAACCUCCAAUGCAUCCCAGCACAUGAUGAUGCCUGAAGAGCCUUGGUUUUUUG [C3U G58A C101G]	-2.57
GACCAAUCUGCCCUCAGAGCUAGAGAACAUCUUCGGAUGUAGAGGAGGCAGGCUUCGGUGGCGCGAUAGCGCUAACGUCCUCAACCUCCAAUGCAUCCCACCACAUGAUGAAGCCUGAAGAGCCUUGGCUUUUUG [C22A C40U C73U U112A U129C]	-4.96
GACCAAUCUGCCCUCAGAGCUCGAGAACAUCUUCGGAUGCAGAGGAGGCAGGCUUCGGUGGCGCGAUAGCGCCAACGUCCUCAACCUCCAAUCCAUCCCACUACAUGAUGAUGCCUGAAGAGCCUUGGUUUUUUG [G93C C102U]	-3.11
GACCAAUCUGCCCUCAGAGCUCGAGAACAUCUUCGGAUGCAGAGGAGGCAGGCUUCGGUGGCGCGAUAGCGCCAACGUCCUCAGCCUCCAAUGCAUCCCACCACAUGAUGAUGCCUGAAAAGACUUGGUUUUUUG [A84G G120A C123A]	-0.958
GACCAAUCUGCCCUCUGAGCUCGAGAACAUCUUCGGAUGCAGAGGAGGCAGACUUCGGUGGCGCGAUAGCGCCAACGUCCUCAACCUCCAAUGCAUCCCACCACAUGAUGAUGCCUGAAGAGCCUUGGUUUUUUG [A16U G52A]	-2.03
GACCGAUCUGCCCUCAGAGCUCGAGAACAUCUUCGGAUGCAGAGGAGGCAGGCUUCGGUGGCGCGAUAGCGCCAACGUCCUCAACCUCCAAUGCAUCCCACCACAUGAGGAUGCCUGAAGAGGCUUGGUCUUUUG [A5G U109G C123G U130C]	-4.03
GACCAAUCUGCCCUCAGAGCUCGAGAACAUCUUCGGAUGCAGAGGAGGCAGGCUUCGGUGGCGCGAUAGCGCCAACGUACUCAACCUCCAAUGCAUCCCACCACAUGAUGAUGCCGGAAGAGCCUUGGUUUUUUG [C79A U116G]	-4.15
GACCAAUCGGCCCUCAGAGCUCGAGAACAUCUUCGGAUGCAGAGGAGGCAGGCUUCGGUGGCGCGAUAGCGCCAACGUCCUCAACCUUCAAUGCAUCCCACCACAUGAUGAUGCCUGAAGAGCCUUGGUUUUUUG [U9G C88U]	-0.0494
GACCAAUGUGCCCUCAGAGCUCGAGAACAUCUUCGGAUGCAGAGGAGGCAGGCUUCGGUGGCGCGAUAGCGCCAACCUCCUCAACCUCCAAUGCAUCCCACCACAUGAUGAUGCCUGAAGAGCCUUGGUUUUUUG [C8G G77C]	0.232
GACCAAUCUGCCCUCAGAGCUCGAGAACAUCUUCGGAUGCAGAGGAGUCAGGCUUCGGUGGCGCGAUAGCGGCAACGUCCUCAACCUCCAAUGCAUCCCACCACAUGAUGAUGCCUGAAGAGCCUUGGUUUUUUG [G48U C72G]	-1.7
GACCAAUCUGCCCUCAGAACUCGAGAACAUCUUCGGAUGCAGAGGAGGCAGGCUUCGGUGGCGCGAUAGCGCCAACGUCCUCAACGUCCAAUGCAUCCCAUCACAUGAUGAUGCCUGAAGAGCCUUGGUUUUUUG [G19A C86G C101U]	-4.15
GACCAAUCUGCCCUCAGAGCUCGAGAACAUCUUCGGAUGCAGAGGAGGCAGGCUUCGGUGGCGCGAUAGCGUCAACGUCCUCAACCUCCAAUGCACCCCACCACAUGAUGAUGCCUGAAGAGCCUUGGUUUUUUU [C72U U96C G135U]	-1.42
GACCAAUCUGCCCUCAGAGCUCGAGAACAUCUUCGGAUGCAGAGGAGGCAGGCUUCGGUGGCGCGAUAGCGCCAACGUCCUCAACCACCAAUGCAUUUCACCACAUGAUGAUGCCUGAAAAGCCUUGGUUUUUUG [U87A C97U C98U G120A]	-2.92
GACCAAUCUGCCCUCAAAGCUCGAGAAUAUCUUCGGAUGCAGAGGAGGCAGGCUUCGGUGGUGCGAUAGCGCCAACGUCCUCAACCUCCAAUGCAUCCCACCACAUGAAGAUGCCGGAAGAGCCUUGGUUUUUUG [G17A C28U C62U U109A U116G]	-5.8
GACCAAUCUGCCCUCAGAGCUCGAGAACAUCUUCGGAUGCAGAGGAGGCAGGCUUCGGUGGAGCGAUAGCGCCAACGUCCUCAGCCUCCAAUGCAUCCCACCACAUGAUGAUGCCUAAAGAGCCUUGGUUUUUUG [C62A A84G G117A]	-5.26
GACCAAUCUGCCCUCAGAGCUCGAGAACAUCUUCGGAUGCAGAAGAGGCAGGCUUCGGUGGCGCGAUAGCGGCAACGUCCUCAACCUCCAAUGCAUUCCACCACAUGAUGAUUCCUAAAGAGCCUUGGUUUUUUG [G44A C72G C97U G113U G117A]	-6.18

Variant	polymerase ribozyme fitness (log ratio)
GAUCAAUCUGCACUCAGAGCUCGAGAACAUCUUCGGAUGCAGAGGUGGCAGGCUUCGGUGGCGCGAUAGCGCCAACGUCCUCAACCUCCAAUGCAUCCCACCACAUGAUGAUGCCUGAAGAGCCUUGGUUUUUUG [C3U C12A A46U]	-1.98
GACCAAUCUGCCCUCAGAGCUCGAGAACAUCUUCGGAUGCAGAGGAGGCAGGCUUCGGUGGCGCGAUAGCGCCAACGUCCUCAACCUCCAAUGCAUCCCACCACAUGAUGAAGCCUGAAGAGCUUUGGUUUUUUG [U112A C124U]	1.1
GACCAAUCUGCCCUCAGAGCUCGAGAACAUCUUCGGAUGCAGAGGAGGCAGGCUUCGGUGGCGCGAUAGCGCCAACGUCCUCAACCUCCAAUGCAUCCCACCACAUGAUGAUUCCUGAAGAGCCUUCGUUUUUUG [G113U G127C]	-1.61
GACCAAUCUGCCCUCAGCGCUCGAGAACAUCUUCGGAUGCAGAGGAGGCAGGCUUCGGUGGCGCGAUAGCGGCAACGUCCUCAACCUCGAAUGCAUCCCACCACAUGAUGAUGACUGAAGAGCCUUGGUAUUUUG [A18C C72G C89G C114A U130A]	-4.03
GACCAAUCUGCCAUCAGAGCUCGAGAACAUCUUCGGAUGCAGAGGAGGCAGGCUUCGGUGGCGCGAUAGCGCCAACGUCCUCAACCUCCAAUGCAUCCCACCUCAUGAAGAUGCCUGAAGAGCCAUGGUUGUUUG [C13A A103U U109A U125A U131G]	-6.73
GACCAAUCUCUCCUCAGAGCUCGAGAACAUCUUCGGAUGCAGAGGAGGCAGGCUUCGGUGGCGCGAUAGCGCCAACGUCCUCAUCCUCCAAUGCAUCCCACCACAUGGUGAUGCCUGAAGAGCCUUGGUUUUUUG [G10C C11U A84U A108G]	-2.5
GACCAAUCUGCCCUCAGAGCUCGAGAACAUCUUCGGAUGCAGAGGAGGCAGGCUUAGGUGGCGCGAUAGCGCCAACUUCCUCAACCUCCAAUGCAUCCCACCACAUGAUGAUGCCUGAAGAGCCUUGGUUUUUUG [C56A G77U]	-0.278
GACCAAUCUGCCCUCAGAGCUCGAGAACAUCUUCGGAUGCAGAGGAGGCAGGCUUGGUCGGCGCGAUAGCGCCAACGUCCUCAACCUCCAAUGCAUCCCACCACAUGAUGAUGCCUGAAGAGCAUUGGUUUUUUG [C56G G58U U59C C124A]	1.88
GACCAAUCUGCCCUCAGAGCUCGAGAACAUCUUCGGAUGCAGAGGAGGCAGGCUUCGGUGGCGCGAUAGCGCCAACGUCCUCAACCUCCAAUGCAUCCCACCACAUGAUGAUCCCUGAAGAGCGUUGGUUUUUUG [G113C C124G]	-1.33
GACCAAUCUGCCCUCAGAGCUCGAGAACAUCUUCGGAUGCAGAGGAGGCGGGCUUCGGUGGUGCGAUAGCGCCAACGUCCUCAACCACCAAUGCAUCCCACCACAUGAUGAUGCCUGAAGAGCCUUGGUUUUUUG [A50G C62U U87A]	-0.164
GACCAAUCUGCCCUCAGAGCUCGAGAACAUCUUCGGAUGCAGAGGAGGCAGGCUUCGGUGGCGCGAUAGCUCGAACGUCCUCAACCUCCAAUGCAUCCCACCACAUGAUGAUGCCUGAAGAGCCUUGGUUUUUUG [G71U C73G]	-5.51
GACCAAUCUGCCCUCAGAGCUCGAGAACAUCUUCGGAUGCAGAGGAGGCAGGCUUCGGUGGCGUGAUAGCGCCAACGUCCUCAACCUCCUAUGCAUCCCACCACAUGAUGAUGCCUGAAGAGCCUUGGUUUUUUG [C64U A90U]	-0.99
GACCAAUCUGCCCUCAGAGCUCGAGAAGAUCUUCGGAUGGAGAGGAGUCAGGUUUCGGUGGCGCGAUAGCGCCAACGUCCUCAACCUCCAAUGCAUCCCACCACAUGAUGAUGCCUGAAGAGCCUUGGUUUUUUG [C28G C40G G48U C53U]	-3.75
GACAAAGCUGCCCUCAGAGCUCGAGAACAUCUUCUGAUGCAGAGGAGGCAGGCUUCGGUGGCCCUAUAGCGCCAACGUCCUCAACCUCCAAUGCAUCUCACCACAUGAUGAUGCCUUAAGAGCCUUGGUUUUUUG [C4A U7G G35U G63C G65U C98U G117U]	-6
GACCAAUCUGCCCUCAGAGCUCUAGAACAUCUUCGGAUGCAGAGGAGGCAGGCUUCGGUGGCGCGAUAGCGCCAACGUCCUCAACCUCCAAUGCAUCCCACCACAUGAUGAUGCCUGAAGAGACUUGGUUUUUUG [G23U C123A]	-5.92
GACCAAUCUGCCCUCAGAGCUCGAGAACAUCUUCGGAUGCAGAGGGGGCAGGCUUCGGUGGCGCGAUAGCGCCAACGUCCUCAACCUCCAAUGCAUCCCACCACAAGAUGAUGCCUGAAGAGCCUUGGUUUUUUG [A46G U106A]	0.118
GACCAAUCUGCCCUCAGUGCUCGAGAACAUCUUCGGAUGCAGAGGAGGCAGGCUUCGGUAGCGCGAUAGCGCCAACGUCCUCAACCUCCCAUGCAUCCCACCACAUGAUGAUGCCUGAAGAGCCUUGGUUUUUUG [A18U G60A A90C]	-1.79
GACCAAUCUGCGCUCAGAGCUCGAGAACAUCUUCGGAUGCAGAGGAGGGAGGCUUCGGUGGCGCGAUAGCGCCAACGUCCUCAACCUCCAAUGCAUCCCACCACAUGAUGAUGCCUGAAGAGCCUUGGUUUUUUG [C12G C49G]	-0.51
GACCAAUCUGCCCUCAGAGCUCGAGAACAUCUUCGGAUGCAGAGGAGGCAGGCUUCGGUGGCGCGAUAGCGCCAACGUCCUCCACCUCCAAUGCAUCCCACCACAUGAUGAUGCAUGAAGAGCCUUGGUUUUUUG [A83C C115A]	0.0144
GACCAAUCUGCCCUCAGAGCUCGAGAGCAUCUUCGGAUGCAGAGGAGGCAAGCUUCGGUGCCGCGAUAGCGCCAACGUCCUCAACCUCCAAUGCAUCCCACCACAUGAUGAUGCCUGAAGAGCCUUGGUUUUUUG [A27G G51A G61C]	-4
GACCAAUCUGCCCUCAGAGCUCGAGAAGAUCUUCGGAUGCAGAGGAGGCAGGCUUUGGUGGCGCGAUAGCGCCAACGUCUUCAACCUCCAAUGCAUCCCACCACAUGAUGAUGCCUGAAGAGCCUUGGUUUUUUG [C28G C56U C80U]	-4.97
